Reference: PMC7952604, “Structural insights into phosphatidylethanolamine formation in bacterial membrane biogenesis” (Scientific Reports, 2021)
Square brackets hold non-standard residues; d marks the D form. Ends that are not written are not given here. * marks the point of attachment. Pyruvoyl = CC(=O)C(=O)*

B1: E. coli phosphatidylserine decarboxylase (PSD) β-subunit, from PSD_(1–287) (domain or fragment, Escherichia coli, UniProt P0A8K1 1-253, looked up)
chain: MLNSFKLSLQYILPKLWLTRLAGWGASKRAGWLTKLVIDLFVKYYKVDMKEAQKPDTASYRTFNEFFVRPLRDEVRPIDTDPNVLVMPADGVISQLGKIEEDKILQAKGHNYSLEALLAGNYLMADLFRNGTFVTTYLSPRDYHRVHMPCNGILREMIYVPGDLFSVNHLTAQNVPNLFARNERVICLFDTEFGPMAQILVGATIVGSIETVWAGTITPPREGIIKRWTWPAGENDGSVALLKGQEMGRFKLG
notes: Made as one proenzyme chain (residues 1-287 with a C-terminal His6 tag) that cuts itself; the β-chain is the N-terminal product; also called β-chain; beta chain; source: E. coli BL21(DE3), DDM-solubilised, purified (HisTrap, SEC) as auto-cleaved PSD_(1–287)
B2: 8PE-PSD: αβ-heterodimer of E. coli PSD_(1–287) with 8:0/8:0 PE linked to Pvl-254 (complex, Escherichia coli)
chain 1: B1 chain
chain 2: STVINLFAPGKVNLVEQLESLSVTKIGQPLAVST
modifications: 8:0/8:0 PE covalently linked to the pyruvoyl residue Pvl-254 (reduced Schiff base)
notes: β-chain of E. coli phosphatidylserine decarboxylase, residues 1-253; α-chain of E. coli phosphatidylserine decarboxylase, residues 254-287; source: E. coli BL21(DE3), purified PSD_(1–287), conjugated with 8PE by NaCNBH3-dependent reduction of the Schiff base
B3: E. coli PSD_(1–287) αβ-heterodimer, apo (complex, Escherichia coli)
chain 1: B1 chain
chain 2: B2 chain 2
modifications: pyruvoyl residue (Pvl-254) at the N-terminus, formed from Ser-254 on auto-cleavage
notes: β-chain of E. coli phosphatidylserine decarboxylase, residues 1-253; α-chain of E. coli phosphatidylserine decarboxylase, residues 254-287; The unit that pairs with itself into the (αβ)2 heterotetramer; also called Apo-PSD1; Apo-PSD2; source: E. coli BL21(DE3), DDM-solubilised, purified (HisTrap, SEC)
B4: 10PE-PSD: αβ-heterodimer of E. coli PSD_(1–287) with 10:0/10:0 PE linked to Pvl-254 (complex, Escherichia coli)
chain 1: B1 chain
chain 2: B2 chain 2
modifications: 10:0/10:0 PE covalently linked to the pyruvoyl residue Pvl-254 (reduced Schiff base)
notes: β-chain of E. coli phosphatidylserine decarboxylase, residues 1-253; α-chain of E. coli phosphatidylserine decarboxylase, residues 254-287
B5: E. coli PSD α-subunit, from PSD_(1–287), conjugated with 10:0/10:0 PE (domain or fragment, Escherichia coli, UniProt P0A8K1 254-287, looked up)
chain: [Pyruvoyl]TVINLFAPGKVNLVEQLESLSVTKIGQPLAVST
modifications: not fully specified (residue 1); also: 10:0/10:0 PE linked to Pvl-254 by reduced Schiff base
notes: α-chain of E. coli phosphatidylserine decarboxylase, residues 254-287 of the construct PSD_(1–287); also called 10PE-conjugated α-chain
B6: E. coli PSD α-subunit, from PSD_(1–287), conjugated with 8:0/8:0 PE (domain or fragment, Escherichia coli, UniProt P0A8K1 254-287, looked up)
chain: [Pyruvoyl]TVINLFAPGKVNLVEQLESLSVTKIGQPLAVST
modifications: not fully specified (residue 1); also: 8:0/8:0 PE linked to Pvl-254 by reduced Schiff base
notes: α-chain of E. coli phosphatidylserine decarboxylase, residues 254-287 of the construct PSD_(1–287); also called 8PE-conjugated α-chain; source: E. coli BL21(DE3), purified PSD_(1–287), conjugated with 8PE by NaCNBH3-dependent reduction of the Schiff base
B7: E. coli phosphatidylserine decarboxylase (PSD) α-subunit, from PSD_(1–287), apo (domain or fragment, Escherichia coli, UniProt P0A8K1 254-287, looked up)
chain: [Pyruvoyl]TVINLFAPGKVNLVEQLESLSVTKIGQPLAVST
notes: No removal of the His6 tag is described; also called α-chain; alpha chain; source: E. coli BL21(DE3), DDM-solubilised, purified (HisTrap, SEC) as auto-cleaved PSD_(1–287)

Key:
PSD1–322 [1] = biological target: T1, PSD1–322 (Escherichia coli, UniProt P0A8K1, H144A); assay: Schiff base reduction with NaCNBH3, MALDI-TOF; type: binding; conditions: 1 mM lipid, 50 mM NaCNBH3, 37 °C, 15 h; covalent; active site Pvl-254
T1 construct: gene psd; full length (1-322), C-terminal His6 tag, auto-cleaved 253/254 with Ser254 turned to pyruvoyl, expressed in E. coli BL21(DE3), solubilised in DDM
T1 sequence (P0A8K1 254-322): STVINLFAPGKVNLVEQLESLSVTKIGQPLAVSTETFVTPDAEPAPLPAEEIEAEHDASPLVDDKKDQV
T1 sequence (P0A8K1 1-253 H144A): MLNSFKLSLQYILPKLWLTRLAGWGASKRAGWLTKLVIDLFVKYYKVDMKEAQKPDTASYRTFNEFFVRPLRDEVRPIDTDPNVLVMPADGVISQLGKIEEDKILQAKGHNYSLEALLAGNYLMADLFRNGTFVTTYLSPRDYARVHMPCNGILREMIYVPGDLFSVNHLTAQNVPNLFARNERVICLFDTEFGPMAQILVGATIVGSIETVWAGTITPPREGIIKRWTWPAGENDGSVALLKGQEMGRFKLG

PSD1–287 [2] = biological target: T2, PSD1–287 (Escherichia coli, UniProt P0A8K1); assay: X-ray structure ([…] Å); NaCNBH3 reduction, MALDI-TOF; type: binding; conditions: 1 mM lipid, 50 mM NaCNBH3, 37 °C, 14 h, pH 7.5; covalent; reduced Schiff base to Pvl-254
T2 construct: gene psd

PSD1–322 [3] = biological target: T3, PSD1–322 (Escherichia coli, UniProt P0A8K1, H144N); assay: Schiff base reduction with NaCNBH3, MALDI-TOF; type: binding; conditions: 1 mM lipid, 50 mM NaCNBH3, 37 °C, 15 h; covalent; active site Pvl-254
T3 construct: gene psd; full length (1-322), C-terminal His6 tag, auto-cleaved 253/254 with Ser254 turned to pyruvoyl, expressed in E. coli BL21(DE3), solubilised in DDM
T3 sequence (P0A8K1 1-253 H144N): as the sequence (P0A8K1 1-253 H144A) above, with A144N counted along it
T3 sequence (P0A8K1 254-322): as the sequence (P0A8K1 254-322) above

PSD1–287 [4] = biological target: T2, PSD1–287; assay: Schiff base reduction with NaCNBH3, MALDI-TOF; type: binding; conditions: 1 mM lipid, 50 mM NaCNBH3, 37 °C, 14 h, pH 7.5, covalent, decarboxylated
[5] = biological target: the molecule itself; assay: crystal structure; apo PSD_(1–287) in DDM; sitting drop vapor diffusion at 20 °C; two crystal forms, Apo-PSD1 (1.90 Å) and Apo-PSD2 (2.63 Å)
[6] = biological target: the molecule itself; assay: crystal structure; PE-conjugated PSD_(1–287) in DDM; sitting drop vapor diffusion at 20 °C; 8PE-PSD (2.12 Å) and 10PE-PSD (2.70 Å)
[7] = biological target: B1; assay: as above; conditions: both partners purified
[8] = biological target: B1; assay: crystal structure; apo PSD_(1–287) in DDM; sitting drop vapor diffusion at 20 °C; two crystal forms, Apo-PSD1 (1.90 Å) and Apo-PSD2 (2.63 Å); conditions: both partners purified

CCCCCCCC(=O)OC[C@H](COP(=O)(O)OCCN)OC(=O)CCCCCCC [8PE, 8:0/8:0 PE]
Schiff base reduction with NaCNBH3, MALDI-TOF (PSD1–322 [1]): these proteins were able to form an adduct with 8PE, albeit at a reduced efficiency | % conjugation (PSD1–287 [2]): 98% | Schiff base reduction with NaCNBH3, MALDI-TOF (PSD1–322 [3]): these proteins were able to form an adduct with 8PE, albeit at a reduced efficiency

CCCCCCCCCC(=O)OC[C@H](COP(=O)(O)OC[C@H](N)C(=O)O)OC(=O)CCCCCCCCC [10PS, 10:0/10:0 PS]
% conjugation (PSD1–287 [4]; trapped as 10PE adduct of Pvl-254): 97%

CCCCCCCCCCCCCC(=O)OC[C@H](COP(=O)(O)OC[C@H](N)C(=O)O)OC(=O)CCCCCCCCCCCCC [14PS, 14:0/14:0 PS]
% conjugation (PSD1–287 [4]; trapped as 14PE adduct of Pvl-254): 94%

B1
binding result [5]: binds

B2
stoichiometry N [6]: 2 αβ-heterodimers

B3
stoichiometry N [5]: 2 αβ-heterodimers

B4
stoichiometry N [6]: 2 αβ-heterodimers

B5
binding result [7]: binds

B6
binding result [7]: binds

B7
binding result [8]: binds
